Among the data in the RNAGym collection of RNA variant scans (doi:10.7554/elife.90254) are self-cleavage values, retold here.

B1: LINE1-mini (parent)
chain: GGCAGAGCUCAACACAGCGUGGCAAAGUGGCUGUGGCUAGACUGCC

This series covers variants of B1. Kind of series: self-cleavage, relative activity (ratio to wild type); higher = more cleavage; in vitro, sequencing; the parent is a self-cleaving ribozyme.
On to GGCAGAGCUCAACCCAGCGUGGCAAAGUGGCUGAGGCUAGACUGCC [A14C U34A], for which the self-cleavage is 0.07.
As for GGCAGAGCUCAACCCAUCGUGGCAAAGUGGCUGUGGCUAGACUGCC [A14C G17U], the self-cleavage stood at 0.28.
Regarding GGCAGAGCUCAACCCAACGUGGCAAAGUGGCUGUGGCUAGACUGCC [A14C G17A], the self-cleavage stood at 0.08.
For GGCAGAGCUCAACCCACCGUGGCAAAGUGGCUGUGGCUAGACUGCC [A14C G17C], the self-cleavage was found to be 0.04.
Consider GGCAGAGCUCAACCCAGCGGGGCAAAGUGGCUGUGGCUAGACUGCC [A14C U20G], for which the self-cleavage worked out at 0.1.
For GGCAGAGCUCAACCCAGCGCGGCAAAGUGGCUGUGGCUAGACUGCC [A14C U20C] the value was 0.08; for GGCAGAGCUCAACCCAGCGAGGCAAAGUGGCUGUGGCUAGACUGCC [A14C U20A], 0.08.
Turning to GGCAGAGCUCAACCCAGCGUGGCAAACUGGCUGUGGCUAGACUGCC [A14C G27C], the self-cleavage turned out to be 0.07.
Next, GGCAGAGCUCAACCCAGCGUGGCAAAUUGGCUGUGGCUAGACUGCC [A14C G27U]: 0.09; GGCAGAGCUCAACCCAGCGUGGCAAAAUGGCUGUGGCUAGACUGCC [A14C G27A]: 0.09; GGCAGAGCUCAACCCAGCGUGGCAAAGUGGCUGUGCCUAGACUGCC [A14C G36C]: 0.02.
Regarding GGCAGAGCUCAACCCAGCGUGGCAAAGUGGCUGUGACUAGACUGCC [A14C G36A], the self-cleavage is 0.15.
Take GGCAGAGCUCAACCCAGCGUGGCAAAGUGGCUGUGUCUAGACUGCC [A14C G36U]: the self-cleavage is 0.09.
With GGCAGAGCUCAACCCAGCGUGGCAAAGUGGCUGUGGCUCGACUGCC [A14C A39C], the self-cleavage was determined as 0.04.
Consider GGCAGAGCUCAACCCAGCGUGGCAAAGUGGCUGUGGCUUGACUGCC [A14C A39U], for which the self-cleavage came out at 0.07.
As to GGCAGAGCUCAACCCAGCGUGGCAAAGUGGCUGUGGCUGGACUGCC [A14C A39G], the self-cleavage was determined as 0.04.
As for GGCAGAGCUCAACCCAGCGUGGCAAAGUGGCUGUGGCUAGACUGCC [A14C], the self-cleavage came out at 0.12.
Turning to GGCAGAGCUCAACCCAGCGUGGCGAAGUGGCUGUGGCUAGACUGCC [A14C A24G], the self-cleavage is 0.07.
Turning to GGCAGAGCUCAACCCAGCGUGGCCAAGUGGCUGUGGCUAGACUGCC [A14C A24C], the self-cleavage is 0.11.
Regarding GGCAGAGCUCAACCCAGCGUGGCUAAGUGGCUGUGGCUAGACUGCC [A14C A24U], the self-cleavage turned out to be 0.07.
As for GGCAGAGCUCAACCCAGCGUGGCAAAGUGGCUGUGGCUAAACUGCC [A14C G40A], the self-cleavage amounted to 0.09.
On to GGCAGAGCUCAACCCAGCGUGGCAAAGUGGCUGUGGCUACACUGCC [A14C G40C], for which the self-cleavage was 0.04.
GGCAGAGCUCAACCCAGCGUGGCAAAGUGGCUGUGGCUAUACUGCC [A14C G40U]: the self-cleavage was 0.07.
For the variant GGCAGAGCUCAAUACAGCGUGGCAAAGUGGCUGUGGCUAUACUGCC [C13U G40U], the self-cleavage was 0.09.
On to GGCAGAGCUCAAUACAGCGUGGCAAAGUGGCUGUGGCUACACUGCC [C13U G40C], for which the self-cleavage worked out at 0.08.
Turning to GGCAGAGCUCAACCCAGCGUGGCAAAGCGGCUGUGGCUAGACUGCC [A14C U28C], the self-cleavage came out at 0.07.
On to GGCAGAGCUCAACCCAGCGUGGCAAAGAGGCUGUGGCUAGACUGCC [A14C U28A], for which the self-cleavage was 0.03.
Turning to GGCAGAGCUCAACCCAGCGUGGCAAAGGGGCUGUGGCUAGACUGCC [A14C U28G], the self-cleavage stood at 0.07.
For GGCAGAGCUCAAUACAGCGUGGCAAAGUGGCUGUGGCCAGACUGCC [C13U U38C] the value was 0.1; for GGCAGAGCUCAAUACAGCGUGGCAAAGUGGCUGUGGCAAGACUGCC [C13U U38A], 0.04; for GGCAGAGCUCAAUACAGCGUGGCAAAGUGGCUGUGGCGAGACUGCC [C13U U38G], 0.02.
For GGCAGAGCUCAACCCAGCGUGGCAACGUGGCUGUGGCUAGACUGCC [A14C A26C], the self-cleavage was 0.16.
On to GGCAGAGCUCAACCCAGCGUGGCAAGGUGGCUGUGGCUAGACUGCC [A14C A26G], for which the self-cleavage was found to be 0.06.
Consider GGCAGAGCUCAACCCAGCGUGGCAAUGUGGCUGUGGCUAGACUGCC [A14C A26U], for which the self-cleavage amounted to 0.09.
Next, GGCAGAGCUCAAUACAGCGUGGCAAAGAGGCUGUGGCUAGACUGCC [C13U U28A]: 0.49.
Next, GGCAGAGCUCAAUACAGCGUGGCAAAGCGGCUGUGGCUAGACUGCC [C13U U28C]: 0.28; GGCAGAGCUCAAUACAGCGUGGCAAAGGGGCUGUGGCUAGACUGCC [C13U U28G]: 0.08; GGCAGAGCUCAACCCAGCGUGGCAAAGUGGAUGUGGCUAGACUGCC [A14C C31A]: 0.07.
For GGCAGAGCUCAACCCAGCGUGGCAAAGUGGUUGUGGCUAGACUGCC [A14C C31U], the self-cleavage amounted to 0.02.
For GGCAGAGCUCAACCCAGCGUGGCAAAGUGGGUGUGGCUAGACUGCC [A14C C31G] the value was 0.03; for GGCAGAGCUCAACCCAGCGUUGCAAAGUGGCUGUGGCUAGACUGCC [A14C G21U], 0.07; for GGCAGAGCUCAACCCAGCGUCGCAAAGUGGCUGUGGCUAGACUGCC [A14C G21C], 0.05.
With GGCAGAGCUCAACCCAGCGUAGCAAAGUGGCUGUGGCUAGACUGCC [A14C G21A], the self-cleavage was found to be 0.17.
Regarding GGCAGAGCUCAACCCAGCUUGGCAAAGUGGCUGUGGCUAGACUGCC [A14C G19U], the self-cleavage turned out to be 0.1.
As for GGCAGAGCUCAACCCAGCCUGGCAAAGUGGCUGUGGCUAGACUGCC [A14C G19C], the self-cleavage worked out at 0.03.
For the variant GGCAGAGCUCAACCCAGCAUGGCAAAGUGGCUGUGGCUAGACUGCC [A14C G19A], the self-cleavage was 0.1.
For the variant GGCAGAGCUCAACCCAGCGUGGAAAAGUGGCUGUGGCUAGACUGCC [A14C C23A], the self-cleavage stood at 0.21.
On to GGCAGAGCUCAACCCAGCGUGGUAAAGUGGCUGUGGCUAGACUGCC [A14C C23U], for which the self-cleavage worked out at 0.12.
For the variant GGCAGAGCUCAACCCAGCGUGGGAAAGUGGCUGUGGCUAGACUGCC [A14C C23G], the self-cleavage is 0.11.
GGCAGAGCUCAAUACAGCGCGGCAAAGUGGCUGUGGCUAGACUGCC [C13U U20C]: the self-cleavage amounted to 0.09.
Turning to GGCAGAGCUCAAUACAGCGAGGCAAAGUGGCUGUGGCUAGACUGCC [C13U U20A], the self-cleavage worked out at 0.17.
For GGCAGAGCUCAAUACAGCGGGGCAAAGUGGCUGUGGCUAGACUGCC [C13U U20G], the self-cleavage amounted to 0.1.
With GGCAGAGCUCAACCCAGCGUGACAAAGUGGCUGUGGCUAGACUGCC [A14C G22A], the self-cleavage was 0.18.
For GGCAGAGCUCAACCCAGCGUGCCAAAGUGGCUGUGGCUAGACUGCC [A14C G22C] the value was 0.1; for GGCAGAGCUCAACCCAGCGUGUCAAAGUGGCUGUGGCUAGACUGCC [A14C G22U], 0.06; for GGCAGAGCUCAACCCAGGGUGGCAAAGUGGCUGUGGCUAGACUGCC [A14C C18G], 0.05.
